# Literature values as cited in PMC4245983 (Biochemistry, 2014).
# Positions count from the first letter of the chain named. Names and notes keep the numbering of the source. “Also recorded” adds a separate entry of the source.
# B1: WT HscA: specialized Hsp70-type chaperone (66 kDa) of E. coli (protein, UniProt P0A6Z1 1-616, looked up)
# chain: MALLQISEPGLSAAPHQRRLAAGIDLGTTNSLVATVRSGQAETLADHEGRHLLPSVVHYQQQGHSVGYDARTNAALDTANTISSVKRLMGRSLADIQQRYPHLPYQFQASENGLPMIETAAGLLNPVRVSADILKALAARATEALAGELDGVVITVPAYFDDAQRQGTKDAARLAGLHVLRLLNEPTAAAIAYGLDSGQEGVIAVYDLGGGTFDISILRLSRGVFEVLATGGDSALGGDDFDHLLADYIREQAGIPDRSDNRVQRELLDAAIAAKIALSDADSVTVNVAGWQGEISREQFNELIAPLVKRTLLACRRALKDAGVEADEVLEVVMVGGSTRVPLVRERVGEFFGRPPLTSIDPDKVVAIGAAIQADILVGNKPDSEMLLLDVIPLSLGLETMGGLVEKVIPRNTTIPVARAQDFTTFKDGQTAMSIHVMQGERELVQDCRSLARFALRGIPALPAGGAHIRVTFQVDADGLLSVTAMEKSTGVEASIQVKPSYGLTDSEIASMIKDSMSYAEQDVKARMLAEQKVEAARVLESLHGALAADAALLSAAERQVIDDAAAHLSEVAQGDDVDAIEQAIKNVDKQTQDFAARRMDQSVRRALKGHSVDEV
# modifications: full-length
# B2: auxilin: J-protein of Hsc70 (protein, UniProt Q27974 1-910, looked up)
# Auxilin: MDSSGASSPDMEPSYGGGLFDMVKGGAGRLFSNLKDNLKDTLKDTSSRVIQSVTSYTKGDLDFTYVTSRIIVMSFPLDSVDIGFRNQVDDIRSFLDSRHLDHYTVYNLSPKSYRTAKFHSRVSECSWPIRQAPSLHNLFAVCRNMYNWLLQNPKNVCVVHCLDGRAASSILVGAMFIFCNLYSTPGPAVRLLYAKRPGIGLSPSHRRYLGYMCDLLADKPYRPHFKPLTIKSITVSPVPFFNKQRNGCRPYCDVLIGETKIYTTCADFERMKEYRVQDGKIFIPLSITVQGDVVVSMYHLRSTIGSRLQAKVTNTQIFQLQFHTGFIPLDTTVLKFTKPELDACDVPEKYPQLFQVTLDVELQPHDKVMELTPPWEHYCTKDVNPSILFSSHQEHQDTLVLGGQAPIDIPPDNPRHFGQGGFFSTLCWQDQKSEKSFCEEDHAALVNQESEQSDDELLTLSSPHGNANGDKPHAARKPSKKQQEPAAPAPPEDVDLLGLEGSAVSKNFSSPAAPPSNSELLSDLFGGGGAAGPVQSGQSGVDDVFHPSGPTSTQSTPRRSATSTSASPTLRVGEGATFDPFGAPSKPSGQDLLGSFLNTASASSDPFLQPTRSPSPTVHASSTPAVNIQPDVSGAWDWHTKPGGFGMGSKSAATSPTGSSHGTPTHQNKPQTLDPFADLGTLGGSSFASKPSTPTGLGGGFPPLSSPQKASPQPMGGGWQQGGGYNWQQTQSKPQSSMPHSSPQNRPNYNVSFSSMPGGQNERGKAAANLEGKQKAADFEDLLSGQGFNAHKDKKGPRTIAEMRKEEMAKEMDPEKLKILEWIEGKERNIRALLSTMHTVLWAGETKWKPVGMADLVTPEQVKKVYRKAVLVVHPDKATGQPYEQYAKMIFMELNDAWSEFENQGQKPLY
# B3: HscA T212V (protein, UniProt P0A6Z1 1-616, looked up, variant T212V)
# Chaperone protein HscA: B1 chain with T212V
# Columns and labels:
# HscA [1] = settings: 25 °C; background statement, no reference given
# HscA [2] = settings: read-out: Km of WT HscA (ATP)
# WT HscA = settings: read-out: Kd^ATP of WT HscA
# HscA [3] = settings: compared to DnaK
# Hsc70 NBD = settings: NBD with interdomain linker; ref 32 (b59 prints ref 23)
# [4] = tested on: [2Fe-2S] cluster transfer
molecule,measurement,setting,value
B1,intrinsic ATPase activity,HscA [1],0.02 min^–1
same,Km,HscA [2],12.6 µM
same,Kd,WT HscA,26 ± 7 µM
same,preferential binding to conformational state of IscU,IscU,binds preferentially to the D-state
same,"binding affinity for ATP, fold weaker than DnaK",HscA [3],10^3 fold
same,"rate of ADP dissociation, fold higher than DnaK",HscA [3],> 10^3 fold
B2,effect on ATPase activity of Hsc70 NBD variants,Hsc70 NBD,"stimulated by its J-protein (auxilin) if and only if the interdomain linker was present; also recorded: could be stimulated by its J-protein, auxilin"
B3,effect of ATPase deficient mutant on [2Fe-2S] cluster transfer,[4],abolishes [2Fe-2S] cluster transfer
